Consider 23 molecules from patent US20190112393 (published 2019).

Numbering of substitutions follows the chain as printed.

The chains are these.
T1: human FcγRIa (human, UniProt P12314)
T1 chain: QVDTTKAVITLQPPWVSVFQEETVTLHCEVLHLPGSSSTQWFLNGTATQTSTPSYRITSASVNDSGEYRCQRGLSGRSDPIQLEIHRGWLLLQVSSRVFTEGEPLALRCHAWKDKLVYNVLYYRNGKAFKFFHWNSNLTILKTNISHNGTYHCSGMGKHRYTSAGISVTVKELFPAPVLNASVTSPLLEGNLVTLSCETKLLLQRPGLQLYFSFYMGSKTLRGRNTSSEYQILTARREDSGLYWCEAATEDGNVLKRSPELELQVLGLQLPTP

T2: human FcγRIIb (human, UniProt P31994)
T2 chain: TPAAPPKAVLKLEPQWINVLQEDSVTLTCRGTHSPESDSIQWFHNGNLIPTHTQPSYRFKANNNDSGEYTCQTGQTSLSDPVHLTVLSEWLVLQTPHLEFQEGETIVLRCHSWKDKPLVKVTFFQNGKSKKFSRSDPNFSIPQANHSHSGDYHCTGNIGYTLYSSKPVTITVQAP

B1: BP547 (antibody)
chain 1: QVQLQESGPGLVKPSETLSLTCAVSGHSISHDHAWSWVRQPPGEGLEWIGFISYSGITNYNPSLQGRVTISRDNSKNTLYLQMNSLRAEDTAVYYCARSLARTTAMDYWGEGTLVTVSSASTKGPSVFPLAPSSKSTSGGTAALGCLVKDYFPEPVTVSWNSGALTSGVHTFPAVLQSSGLYSLSSVVTVPSSSLGTQTYICNVNHKPSNTKVDKKVEPKSCDKTHTCPPCPAPDLLGDDSVFLFPPKPKDTLMISRTPEVTCVVVDVSDEDGEVKFNWYVDGVEVHNAKTKPREEQDNSTYRVVSVLTVLHQDWLNGKEYKCKVSNKALPRPIEKTISKAKGQPREPQVYTLPPSRDELTKNQVSLTCLVKGFYPSDIAVEWESNGQPENNYKTTPPVLDSDGSFFLYSRLTVDKSRWQQGNVFSCSVMHEALHNHYTQESLSLSP
chain 2: not shown
B2: BP544 (antibody)
chain 1: B1 chain 1 with R357Q, R411K
chain 2: not shown
B3: BP230 (antibody)
chain 1: B1 chain 1 with R411K
chain 2: not shown
B4: BP543 (antibody)
chain 1: B1 chain 1 with D270Q, R411K
chain 2: not shown
B5: BP548 (antibody)
chain 1: B1 chain 1 with R411K, Q421E
chain 2: not shown
B6: BP546 (antibody)
chain 1: B1 chain 1 with L360M, R411K
chain 2: not shown
B7: BP541 (antibody)
chain 1: B1 chain 1 with K276Q, R411K
chain 2: not shown
B8: BP545 (antibody)
chain 1: B1 chain 1 with D358E, R411K
chain 2: not shown
B9: BP542 (antibody)
chain 1: B1 chain 1 with D298F, R411K
chain 2: not shown
B10: Fv4-IgG1 (antibody)
chain 1: not shown
chain 2: DIQMTQSPSSLSASVGDSVTITCQASTDISSHLNWYQQKPGKAPELLIYYGSHLLSGVPSRFSGSGSGTDFTFTISSLEAEDAATYYCGQGNRLPYTFGQGTKVEIERTVAAPSVFIFPPSDEQLKSGTASVVCLLNNFYPREAKVQWKVDNALQSGNSQESVTEQDSKDSTYSLSSTLTLSKADYEKHKVYACEVTHQGLSSPVTKSFNRGEC
B11: F1382 (antibody)
chain 1: QVQLQESGPGLVKPSETLSLTCAVSGHSISHDHAWSWVRQPPGEGLEWIGFISYSGITNYNPSLQGRVTISRDNSKNTLYLQMNSLRAEDTAVYYCARSLARTTAMDYWGEGTLVTVSSASTKGPSVFPLAPSSKSTSGGTAALGCLVKDYFPEPVTVSWNSGALTSGVHTFPAVLQSSGLYSLSSVVTVPSSSLGTQTYICNVNHKPSNTKVDKKVEPKSCDKTHTCPPCPAPELLGGPSVFLFPPKPKDTLMISRTPEVTCVVVDVSHEDPEVKFNWYVDGVEVHNAKTKPREEQYNSTYRVVSVLTVLHQDWLNGKEYKCKVSNKALPAPIEKTISKAKGQPREPQVYTLPPSRDELTKNQVSLTCLVKGFYPSDIAVEWESNGQPENNYKTTPPVLDSDGSFFLYSKLTVDKSRWQQGNVFSCKVLHEALHSHYTQKSLSLSP
chain 2: B10 chain 2
B12: F1385 (antibody)
chain 1: B11 chain 1 with K428Q
chain 2: B10 chain 2
B13: F1384 (antibody)
chain 1: B11 chain 1 with K428A
chain 2: B10 chain 2
B14: F1388 (antibody)
chain 1: B11 chain 1 with K428S, Y438F
chain 2: B10 chain 2
B15: F1381 (antibody)
chain 1: B11 chain 1 with K428E
chain 2: B10 chain 2
B16: F1386 (antibody)
chain 1: B11 chain 1 with K428Y
chain 2: B10 chain 2
B17: F1387 (antibody)
chain 1: B11 chain 1 with K428S, Y438M
chain 2: B10 chain 2
B18: F1383 (antibody)
chain 1: B11 chain 1 with K428R
chain 2: B10 chain 2
B19: F1391 (antibody)
chain 1: B11 chain 1 with K428S, Y438N
chain 2: B10 chain 2
B20: F1389 (antibody)
chain 1: B11 chain 1 with K428S, Y438T
chain 2: B10 chain 2
B21: F1392 (antibody)
chain 1: B11 chain 1 with K428S, Y438K
chain 2: B10 chain 2
B22: F1390 (antibody)
chain 1: B11 chain 1 with K428S, Y438H
chain 2: B10 chain 2
B23: F1380 (antibody)
chain 1: B11 chain 1 with K428D
chain 2: B10 chain 2

The first assay addresses T1, human FcγRIa. The assay can be described thus: SPR. On the technique in general: Surface plasmon resonance follows binding to a sensor surface in real time, without labels.
Broadly, the Kd is the free concentration of one partner at which half of the binding sites on the other are occupied at equilibrium, for simple one-to-one binding. The molecule B1 came in with a Kd of 12 nM. This lies in the double-digit nanomolar range. The same measure, in the same setting: the result for B2 reads 9.8 nM; that for B3, 10 nM. Same read-out and setting: the result for B4 reads 23 nM. Still for that read-out and setting: for B5 the value was 12 nM; for B6, 9 nM. B7: binding was put at a Kd of 11 nM.

The next assay has as its target T2, human FcγRIIb. The assay can be described thus: SPR.
As to B1, the dissociation constant (Kd) was 19 nM. The same measure, in the same setting: the result for B8 reads 17 nM.

With B2, the dissociation constant (Kd) was 17 nM. Still for that read-out and setting: the result for B3 reads 18 nM; that for B4, 20 nM. On the same count and under the same terms, for B5 the value was 19 nM. Still for that read-out and setting: the result for B9 reads 20 nM; that for B6, 15 nM. For B7, the Kd is 16 nM.

For another assay, the target named is human FcRn (human). The assay can be described thus: SPR, pH 6.0.
Chain of human FcRn (human) (chain, as listed by the source, chain 1 of 2): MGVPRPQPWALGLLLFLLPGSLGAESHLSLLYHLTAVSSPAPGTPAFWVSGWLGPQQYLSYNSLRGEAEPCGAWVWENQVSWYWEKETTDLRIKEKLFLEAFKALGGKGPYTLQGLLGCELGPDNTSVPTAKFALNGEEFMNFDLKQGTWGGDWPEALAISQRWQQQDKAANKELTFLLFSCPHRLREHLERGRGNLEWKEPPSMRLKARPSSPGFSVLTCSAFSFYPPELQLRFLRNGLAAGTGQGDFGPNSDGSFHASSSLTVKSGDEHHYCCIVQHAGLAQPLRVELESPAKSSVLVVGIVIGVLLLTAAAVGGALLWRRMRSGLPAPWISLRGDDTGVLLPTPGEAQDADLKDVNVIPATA
Chain of human FcRn (human) (chain, as listed by the source, chain 2 of 2): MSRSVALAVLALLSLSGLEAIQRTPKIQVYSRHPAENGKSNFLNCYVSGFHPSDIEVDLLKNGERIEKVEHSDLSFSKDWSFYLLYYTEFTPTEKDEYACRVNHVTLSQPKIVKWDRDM
B10 had a Kd of 2400 nM.

The next assay addresses human FcRn (human). The assay can be described thus: SPR, pH 6.0. This is another data set of the same source.
Molecule B11 had an equilibrium dissociation constant (Kd) of 130 nM. This lies in the sub-micromolar range. The same measure, in the same setting: the result for B12 reads 77 nM; that for B13, 86 nM. The same measure, in the same setting: the result for B14 reads 80 nM. On the same count and under the same terms, the result for B15 reads 86 nM. Molecule B16 registered a dissociation constant (Kd) of 160 nM. The same measure, in the same setting: the result for B17 reads 150 nM; that for B18, 160 nM; that for B19, 420 nM. The same measure, in the same setting: the result for B20 reads 68 nM; that for B21, 270 nM. Still for that read-out and setting: for B22 the value was 400 nM; for B23, 73 nM.
